Laboratory results taken from paper PMC4351158 (Structure (London, England : 1993), 2015).

Target: the molecule itself
Assay: crystal structure

B1: wild-type DegS (residues 27-355, without the membrane anchor) (enzyme, E. coli, UniProt P0AEE3 27-355, looked up)
chain: RSLNPLSTPQFDSTDETPASYNLAVRRAAPAVVNVYNRGLNTNSHNQLEIRTLGSGVIMDQRGYIITNKHVINDADQIIVALQDGRVFEALLVGSDSLTDLAVLKINATGGLPTIPINARRVPHIGDVVLAIGNPYNLGQTITQGIISATGRIGLNPTGRQNFLQTDASINHGNSGGALVNSLGELMGINTLSFDKSNDGETPEGIGFAIPFQLATKIMDKLIRDGRVIRGYIGIGGREIAPLHAQGGGIDQLQGIVVNEVSPDGPAANAGIQVNDLIISVDNKPAISALETMDQVAEIRPGSVIPVVVMRDDKQLTLQVTIQEYPATN
binding result: binds
